# According to PMC11667970, “Mycobacterium tuberculosis Mce3R TetR-like Repressor Forms an Asymmetric Four-Helix Bundle and Binds a Nonpalindrome Sequence†” (ACS Chemical Biology, 2024):
# “And” between values parts separate entries of the source, which are not always exact repeats. Equal entries are not always repeated.
# B1: M1, N-terminal TFR segment of Mce3R (amino acids 13-193) (domain or fragment)
# chain: KDRKKQILDQAVGLFIERGFHSVKLEDIAEAAGVTARALYRHYDNKQALLAEAIRTGQDQYQSARRLTEGETEPTPRPLNADLEDLIAAAVASRALTVLWQREARYLNEDDRTAVRRRINAIVAGMRDSVLLEVPDLSPQHSELRAWAVSSTLTSLGRHSLSLPGEELKKLLYQACMAAAR
# notes: Mce3R (Rv1963c), Mycobacterium tuberculosis H37Rv, amino acids 13-193 (M1); calculated monomer MW 20.2 kDa; also called M1 homotetramer; M1 homodimer
# B2: Probe A (dsDNA)
# DNA 1: GCCCCGCGCTATAGGATACTAGCAAGATACATCATAGCCAATATATGCCAGTTTGCATTGCTATTTACCGATCAGTTGTCCAAGCAATCGCGTATTGGCTATGGACATCAGCGGTTCTGCCGC
# DNA 2: GCGGCAGAACCGCTGATGTCCATAGCCAATACGCGATTGCTTGGACAACTGATCGGTAAATAGCAATGCAAACTGGCATATATTGGCTATGATGTATCTTGCTAGTATCCTATAGCGCGGGGC
# B3: Mce3R R53A variant (natural protein)
# chain: MASVAQPVRRRPKDRKKQILDQAVGLFIERGFHSVKLEDIAEAAGVTARALYAHYDNKQALLAEAIRTGQDQYQSARRLTEGETEPTPRPLNADLEDLIAAAVASRALTVLWQREARYLNEDDRTAVRRRINAIVAGMRDSVLLEVPDLSPQHSELRAWAVSSTLTSLGRHSLSLPGEELKKLLYQACMAAARTPPVCELPPLPAGDAARDEADVLFSRYETLLAAGARLFRAQGYPAVNTSEIGKGAGIAGPGLYRSFSSKQAILDALIRRLDEWRCLECIRALRANQQAAQRLRGLVQGHVRISLDAPDLVAVSVTELSHASVEVRDGYLRNQGDREAVWIDLIGKLVPATSVAQGRLLVAAAISFIEDVARTWHLTRYAGVADEISGLALAILTSGAGNLLRA
# notes: not shown: MBP, N-terminal, cleaved; His6, N-terminal, cleaved
# Experiments:
# [1] = biological target: the molecule itself; experiment: SEC; M1 on Superdex 200 HiLoad 16:60, Buffer E (20 mM Tris-HCl pH 7.5, 0.2 M NaCl); two peaks (Figure S1B)
# Mce3R R53A = biological target: T1, Mce3R R53A (Mycobacterium tuberculosis H37Rv, UniProt P95251 1-406, R53A); experiment: EMSA; 0-128 nM; high-affinity binding lost; conditions: protein: recombinant; tags: MBP-His6 N-terminal, removed with TEV (same protocol as WT); chain copies: 2; label: 5'-Cy3 (forward strand); blunt
# T1 sequence: B3 chain
# SEC = biological target: the molecule itself; experiment: SEC
binder,measurement,setting,value
B1,stoichiometry N,[1],4 and 2
B2,binding result,Mce3R R53A,no binding
B3,stoichiometry N,SEC,2 and 4
